Tests used:
[1] = target: Cy5 labeled PDZ14 (engineered yeast SmF variant with a PDZ domain at its C-terminus, 14-mer) (Saccharomyces cerevisiae); experiment: fluorescence burst analysis of two-colour confocal trajectories
[2] = target: Cy5 labeled PDZ14 (engineered yeast SmF variant with a PDZ domain at its C-terminus, 14-mer) (Saccharomyces cerevisiae); experiment: dual-color fluorescence cross-correlation spectroscopy

Alexa 488 labeled KKETPV14 (engineered yeast SmF variant with the short peptide KKETPV at its C-terminus, 14-mer)
stoichiometry N (KKETPV14:PDZ14) [1]: 0.99 | stoichiometry N (KKETPV14:PDZ14) [2]: 1

Source: PMC7959541
